Results as given in US20040063632A1 (Bayer, published 2004).

B3: recombinant human soluble tissue factor (receptor, UniProt P13726 33-251, looked up)
chain: SGTTNTVAAYNLTWKSTNFKTILEWEPKPVNQVYTVQISTKSGDWKSKCFYTTDTECDLTDEIVKDVKQTYLARVFSYPAGNVESTGSAGEPLYENSPEFTPYLETNLGQPTIQSFEQVGTKVNVTVEDERTLVRRNNTFLSLRDVFGKDLIYTLYYWKSSSSGKKTAKTNTNEFLIDVDKGENYCFSVQAVIPSRTVNRKSTDSPVECMGQEKGEFRE
notes: extracellular domain; also called sTF; soluble TF

Assays:
[1] = biological target: full length TF in phospholipid vesicles (human, UniProt P13726 33-295); assay: cell-based or functional assay
[2] = biological target: T1, sTF/FVIIa complex (preformed from sTF and a 2.3 fold molar excess of FVIIai) (human, UniProt P13726 33-251; P08709 61-466, limits assumed, active site inhibited (FVIIai); the way of inhibition is not stated for this batch); assay: isothermal titration calorimetry (MicroCal VP-ITC), 1.2 uM complex in the cell, 65 uM scFv in the syringe; microcalorimetry, TF/FVIIa complex as target
T1 construct: Complex used in the microcalorimeter cell; complete complexing of sTF verified by size exclusion chromatography; also called sTF/VIIa complex; FVIIa/TF complex
Method: (§1) FIG. 3. […] Isothermal titration calorimetry was performed using a MicroCal VP-ITC instrument. […] Data analysis was done using MicroCal Origin software. The data was fit to a single binding site.

[3] = biological target: B3; assay: isothermal titration calorimetry (MicroCal VP-ITC), 141 µM scFv(TF)3e10 in the syringe, 10 µM sTF in the cell, OneSites model
Method: as §1

[4] = biological target: B3; assay: apparent KD from the sTF/FVIIa chromogenic activation assay (3 nM sTF, 2 nM FVIIa, antibody titrated, 4-parameter fit); sTF/FVIIa chromogenic assay, apparent KD
[5] = biological target: B3; assay: isothermal titration calorimetry (MicroCal VP-ITC), 10 uM sTF in the cell, 141 uM scFv in the syringe; microcalorimetry, free sTF as target
Method: as §1

[6] = biological target: T1, sTF/FVIIa complex (preformed from sTF …); assay: isothermal titration calorimetry
Method: as §1

[7] = biological target: T1, sTF/FVIIa complex (preformed from sTF …); assay: isothermal titration calorimetry (MicroCal VP-ITC), 65 µM scFv(TF)3e10 in the syringe, 1.2 µM preformed sTF/FVIIai complex in the cell, OneSites model
Method: as §1

Human FVIIa = biological target: T2, Human FVIIa (human, UniProt P08709 61-466); assay: sTF/FVIIa activation assay: sTF titrated against 2 nM FVIIa without antibody, rate of cleavage of chromogenic substrate S-2266, apparent KD from a 4-parameter fit
T2 construct: Bought protein; also called factor VIIa
T2 sequence (looked up): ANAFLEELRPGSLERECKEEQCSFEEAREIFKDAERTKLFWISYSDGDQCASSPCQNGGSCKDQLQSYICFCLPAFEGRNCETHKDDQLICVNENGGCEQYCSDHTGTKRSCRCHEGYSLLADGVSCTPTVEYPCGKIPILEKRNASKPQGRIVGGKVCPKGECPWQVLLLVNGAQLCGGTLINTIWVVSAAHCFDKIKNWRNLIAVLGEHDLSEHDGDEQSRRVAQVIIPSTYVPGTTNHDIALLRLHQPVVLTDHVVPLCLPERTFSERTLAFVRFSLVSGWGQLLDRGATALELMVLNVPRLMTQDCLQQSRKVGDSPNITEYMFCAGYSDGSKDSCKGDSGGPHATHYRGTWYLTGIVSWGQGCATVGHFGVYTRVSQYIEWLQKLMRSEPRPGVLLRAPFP

B1: scFV(TF)3e10 (dimer) (scFv)
scFv: EMAQVNLRESGGTLVQPGGSLRLSCAASGFSFTDAWMSWVRQAPGKELEWVSSISGSGGSTYYAGSVKGRFTISRDNSKNTLYLQMNSLRAEDTAVYYCARVLSLTDYYWYGMDVWGQGTLVTVSAGGGGSGAPNFMLTQPHSVSASPGKTVTISCTRSSGSVASYYVQWYQQRPGSSPTTVIYEDNHRPSGVPDRFSGSIDTSSNSASLTISGLKTEDEADYYCQSYDSNNLVVFGGGTKLTVLGAAAGAPVPYPDPLEPRAA
- IC50 for inhibition in the FX activation assay [1]: 0.44 nM

B2: single chain anti-TF antibody scFv(TF)3e10 (scFv)
scFv: EMAQVNLRESGGTLVQPGGSLRLSCAASGFSFTDAWMSWVRQAPGKELEWVSSISGSGGSTYYAGSVKGRFTISRDNSKNTLYLQMNSLRAEDTAVYYCARVLSLTDYYWYGMDVWGQGTLVTVSAGGGGSGAPNFMLTQPHSVSASPGKTVTISCTRSSGSVASYYVQWYQQRPGSSPTTVIYEDNHRPSGVPDRFSGSIDTSSNSASLTISGLKTEDEADYYCQSYDSNNLVVFGGGTKLTVLGAAAGAPVPYPDPLEPRAA
notes: Human scFv from phage library HuPhaBL3
- Kd [2]: 33 nM
- N [3]: 0.878
- ΔH [3]: -21.9 kcal/mol
- ΔS [3]: -43.6
- Kd [4]: 65.4 nM
- Kd [5]: 600 nM
- fold higher affinity than for free sTF [6]: 20 fold
- N [7]: 1.14
- ΔH [7]: -28.6 kcal/mol
- ΔS [7]: -60

Binder: B3
- Kd (Human FVIIa): 13 nM

B4: scFv(TF)3e10-TMi456 fusion protein (other)
chain: EMAQVNLRESGGTLVQPGGSLRLSCAASGFSFTDAWMSWVRQAPGKELEWVSSISGSGGSTYYAGSVKGRFTISRDNSKNTLYLQMNSLRAEDTAVYYCARVLSLTDYYWYGMDVWGQGTLVTVSAGGGGSGAPNFMLTQPHSVSASPGKTVTISCTRSSGSVASYYVQWYQQRPGSSPTTVIYEDNHRPSGVPDRFSGSIDTSSNSASLTISGLKTEDEADYYCQSYDSNNLVVFGGGTKLTVLGAAAGGGGSGGGGSGGGGSVEPVDPCFRANCEYQCQPLNQTSYLCVCAEGFAPIPHEPHRCQMFCNQTACPADCDPNTQASCECPEGYILDDGFICTDIDECENGGFCSGVCHNLPGTFECICGPDSALAGQIGTDCAAAGAPVPYPDPLEPRAA
- IC50 of FX activation by the FVIIa/TF complex [1]: 0.5 nM
- TM cofactor activity (protein C activation assay on TF-rich surface) [1]: > 5 fold
